Measured values from patent US20080131422A1 (JURIDICAL FOUNDATION THE CHEMO SERO THERAPEUTIC RESEARCH …, published 2008).

Target: T1, Aβ42 peptide (amyloid β peptide 1-42), soluble (UniProt P05067 672-713)
T1 construct: domain: Aβ1-42; also called Aβ1-42; soluble Aβ42 peptide
Experiment: ELISA; tat-VL coated, Aβ42 peptide at 100 ng/well, anti-Aβ42 monoclonal antibody detection

T1 sequence (P05067 672-713 limits assumed): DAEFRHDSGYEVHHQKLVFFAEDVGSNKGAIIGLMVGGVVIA

B1: tat peptide-fused human-derived anti-Aβ42 peptide VL chain (other)
chain: MGYGRKKRRQRRRGDIVMTQSPDSLAVSLGERATINCKSSQSVIHNSNVKNCLAWYQQKLGQPPNLLIYWASTRESGVPDRFSGSGSGTDFTLKISRVEAEDVGVYYCMQSIQLPRTFGQGTKVEIKR
notes: also called tat-VL chain; tat peptide-fused VL chain
Does B1 bind?
Result: binds
